39 sequences from the supplement of paper PMC10126150 can be followed below.

± gives the standard deviation of the averaged measurements.

The subject of this data set is ATP. Nature of the data set: switch fluorescence ratio, 500 uM ATP over buffer (Cy3 cluster intensity, sum of 5 cycles each) (fold (ratio)); higher = stronger signal-on switching upon ATP binding; sequences stand for … in TCGTCGGCAGCGTCAGATGTGTATAAGAGACAGTTTTTTTTTTTTTTTTTTTTTTTTT…TC. Conditions: aptamer strand: ATP DNA aptamer (quencher-CACCTGGGGGAGTATTGCGGAGGAAGG + anchor), 100 nM annealed; ATP concentration: 500 uM. The method in brief:
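Exposure to 500 uM ATP lasted 15 min at 22 °C before imaging, and a selection-buffer image was taken beforehand, for Cy3-labelled switching-strand clusters on a modified Illumina MiSeq flow-cell annealed to 100 nM quencher-labelled ATP aptamer. Five buffer/ATP cycles were run with NaOH stripping and re-annealing between them. The fluorescence ratio per cluster is summed target-cycle over summed buffer-cycle Cy3 intensity, averaged per switch-domain sequence. Clusters outside 100-1000 RFU were excluded.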
For the sequence GCTTTTAGTG, the switch fluorescence ratio is 1 ± 0.039.
To GGGTTGTATT belongs 0.991 ± 0.031; to TTTGATAAAT, 1 ± 0.014.
To ATTATGACGG belongs 0.982 ± 0.047; to TCATGAGGGA, 1.02 ± 0.022.
Turning to TTAACCGGGG, the switch fluorescence ratio turned out to be 1.13 ± 0.16.
As for TCAAAATGTG, the switch fluorescence ratio was found to be 0.958 ± 0.015.
Consider TTATTTGCTG, for which the switch fluorescence ratio came out at 1.02 ± 0.056.
As for ATTATGGGAG, the figure is 0.989 ± 0.011; as for TGAGGAAGAC, 1.09 ± 0.014.
To TGGGTTTGGT belongs 1.01 ± 0.014; to TTGCTTAAAA, 0.9852 ± 0.0095.
Turning to TGGAATAATT, the switch fluorescence ratio came to 1.003 ± 0.0081.
To CTGATGTCGT belongs 1.01 ± 0.033; to AGTTCCCCTT, 1.052 ± 0.0024; to TCGGGGGCAC, 1.45 ± 0.71.
To AAGTTGGGGC belongs 0.989 ± 0.032; to ATCAAGCAGT, 1.41 ± 0.47; to GGGTTTGTAG, 1.01 ± 0.056.
As for TCGGGATACT, the figure is 1.86 ± 0.32.
Turning to ACTTGGGCTT, the switch fluorescence ratio was found to be 1.03 ± 0.051.
For TGTTGGTAAA, the switch fluorescence ratio stood at 1.02 ± 0.024.
As for GGATGGGGAA, the figure is 0.998 ± 0.024; as for TAGCCTTTTT, 0.955 ± 0.015.
For the sequence AACGGTGGTC, the switch fluorescence ratio worked out at 1.03 ± 0.075.
As for TTTAAATAGC, the figure is 0.9742 ± 0.00053; as for TTGTGTAAGC, 1.01 ± 0.038.
To GACGTAAATA belongs 1.75 ± 0.18; to GTTTTTTCCG, 0.992 ± 0.012.
To CTGTCCTAGG belongs 1.036 ± 0.0033.
Regarding GACGAATGGG, the switch fluorescence ratio was 0.985 ± 0.015.
Take AAAATTATAT: the switch fluorescence ratio is 1.02 ± 0.035.
Take CATGAAGGTA: the switch fluorescence ratio was found to be 0.9566 ± 0.0087.
To TCTATGTTAT belongs 0.999 ± 0.027; to GACTTTTAGG, 1.01 ± 0.027; to AGGTTTGTTG, 0.998 ± 0.016.
As for AGCCCATACG, the figure is 1.2 ± 0.039; as for ATGATTTCGT, 0.9793 ± 0.0085.
To AAGTTAGTTA belongs 1.03 ± 0.02.
